Assay: label from the status in PepcDB records

Row | Sequence | protein production
1 | MTQQLNHAKVNQHPGQATLPETAEGQVRTYEVKTYGCQMNVHDSERLSGLLEEAGYVAAPEDTTPDLVVFNTCAVRENADMRLYGTLGNLRSVKEKNPGMQIAVGGCLAQKDKDTVVKKAPWVDVVFGTHNIGSLPTLLQRAEHNAQAEVEIVDSLEQFPSVLSAKRESAYAGWVSVSVGCNNTCTFCIVPSLRGKEQDRRPGDILAEVQALVDQGVTEVTLLGQNVNAYGVNFVDPELERDRSAFSKLLRACGEIEGLERVRFTSPHPAEFTSDVIDAMAETPNICPQLHMPLQSGSDKVLKEMRRSYRSKKFLSILDEVRAKIPHASITTDIIVGFPGETEEDFQATLDVVKKARFTSAYTFQYSPRPGTPAAEYENQLPKEVVQERYERLMVVQEQVCEEENQKLIGTTVELLVQAGGGRKNDATKRMSGRARDGRLVHFAPEGDIDGEIRPGDFVTVTVTEAKPFFLIADSGVQTHRRTKAGDNSAVGQVPTTAPIGVGLGLPQIGAPKVAPATESACCSIN | failed
2 | AQELAHKINHIVASRPATAAMLQEIAHLVGTATNVDCCCLVTVTNEESTETTTANWCSDEFLGVPLSNEMFSTERFLMELPVLQCAVEPRNIDEISIIRNSLVVGCQHLPLPIKAVLAISTRFGGKTNGVISLIKFQSHDWDDSAKNILKTIEASCAIAFSQLTQAQLISSQQQHLQ | failed
3 | METLSVIHTVANRLRELNPDMDIHISSTDAKVYIPTGQQVTVLIHYCGSVFAEPENTDATVQKQLIRISATVIVPQISDAINALDRLRRSLGGIELPDCDRPLWLESEKYIGDAANFCRYALDMTASTLFIAEQESKDSPLLTIVNYEEIQ | not failed
4 | MTTIDPRSELVDGRRRAGARVDAVGAAALLSAAARVGVVCHVHPDADTIGAGLALALVLDGCGKRVEVSFAAPATLPESLRSLPGCHLLVRPEVMRRDVDLVVTVDIPSVDRLGALGDLTDSGRELLVIDHHASNDLFGTANFIDPSADSTTTMVAEILDAWGKPIDPRVAHCIYAGLATDTGSFRWASVRGYRLAARLVEIGVDNATVSRTLMDSHPFTWLPLLSRVLGSAQLVSEAVGGRGLVYVVVDNREWVAARSEEVESIVDIVRTTQQAEVAAVFKEVEPHRWSVSMRAKTVNLAAVASGFGGGGHRLAAGYTTTGSIDDAVASLRAALGLEHHHHHH | not failed
5 | MGISTNHTTFDGLSFKTFLENLASLLHEKPLSTPPCNDRTLLKARDPPSVAFPHHELVKFQDCETTTVFEATSEHLDFKIFKLSSEQIKKLKERASETSNGNVRVTGFNVVTALVWRCKALSVAAEEGEETNLERESTILYAVDIRGRLNPELPPSYTGNAVLTAYAKEKCKALLEEPFGRIVEMVGEGSKRITDEYARSAIDWGELYKGFPHGEVLVSSWWKLGFAEVEYPWGKPKYSCPVVYHRKDIVLLFPDIDGDSKGVYVLAALPSKEMSKFQHWFEDTLC | failed
6 | MDIEIENHPLEPFLPANARLLMLGSFPPQKKRWSMDFYYPNLNNDMWRIVGLLFFNNKDYFLNETRKAFCRERIISFLNDKGIALFDTASAIRRLQDNASDKFLEVVQPTDISRLLGQLPECKAIVTTGQKATDTLRAQFEVEEPKVGDFSEFVFDGRPVRLYRMPSSSRAYPLALDKKAAAYRTMYQDLQMLNIELEHHHHHH | not failed
7 | MSLEEVIEQLREANEPVPVPLELPDEDQLVEIEEQLFINIPFVFKEFLLTVSDVVYGSLEPVTVTDPQSHTYLPEVCATAWDLGVPRELIPICQDGEDYYCVEEDGTVLLWSAEEELVTEESWESVWHWARDVWLESEGHHHHHH | not failed
8 | MLSPCCHGQSMKTKITGKTISRIVPAEKVYRIHDTLQPGLSIRVLPSGHASYMVTWARNKAATLGRVGVITLEQARTDASRYLADAHAIGEPVAITEKRTGAAMPTLDHFLTHTFEPWAAEHHRDAKNGNRAIRHSFEALLSIPLSSIDTKRVEQIRTAWLRAGLAPSTANRNITRLRGVLSRALEWGVLQEHPLKVRKLKVDDRSRVRYLSIEEETALREALEARSNEMRDARDSANKWRLERHKEPLADLRAVRYADHLEPLVVLSINTGVRRGEAFNLTWADVDLKNKLITVEGDTSKSGQTRHVPLNREALDTLTKWKEQRGGNGFVFPGQHGKRLDNVKKSWSGLLKLAKVERFRWHDLRHTFASKLVMAGVPLNTVRELLGHTDIKMTLRYAHLAPGTKAAAVELI | failed
9 | DCYKNFVAKKCAGCKNPITGFGKGSSVVAYEGQSWHDYCFHCKKCSVNLANKRFVFHQEQVYCPDCAKKL | not failed
10 | MHHYRVSGWTLATEIPLPHLFPCSAPAGEAAADITLRQGPVPPPPVPLRLDRDGIQVGADGHTVIDIPNCVRIGLTGGRDIMVDPAPGASWPEIQTWLLGPGLGVICHQRGVLPLHACAIRTGKGGLAIVGNSGAGKSTTATALVQRGHRLLGDDVLVVDPDTGLAQPCFPMVKLWDSSRSALDIGQEGQQSVGGKIGKWHMPMLAAFDPVPRPLSAIVHLRADPAARRPVLTRWPRPHAAAVLDAMTYRVYLADALHGRRHVLSAATRLAAHVPVWELVRTADFADLAEMLDMLEGLAGALEHHHHHH | failed
11 | STPSSKAINEVSTEDSNVTVTAVVLTSGRRSIQYNGEQHVIREGELADETGKISYTAWDGFSGDLQPGQTVQLGNAGVREWDGQPELNLGDSTDP | failed
12 | MTTIFIEKATILDAEKLTEIMTRTFDEEEKRWLCGQGDVIDYNIQPPGYSSVEMMRYSIEELDCYKVIMDGKIIGGIIVTISGKSYGRIDRIFVEPVYQGKGIGSYVIKLIEEEYPSIRIWDLETSSRQLNNHHFYKKMGYETIFKSEDEYCYVKRIT | failed
13 | PKTGPTMTKELVFSSNIGQHDLDTKSKQIQQWIEKKYHVQVTIKRRKDAEQSEEETEEIFNQILQTMPDIATFSSRPKAIRGGTASMCVFRHLSKKEEK | not failed
14 | MSVRDLIPWSRGGGPAPSIYRGDDMDPFLSLHRNVNRLFDEVFRGFDTPSVLGRMAPLNGTWPGVEFSETDEEIRLTAEIPGLDENDVEVMLDDGVLTLRGEKKAETEDKDRQFSERYYGRFERRFGLGREVEDDKVAATFKNGVLTVTLPKTKRAQANAKRIAINGNK | failed
15 | MGVNETGYVLIYGGSSWVSQPQALETIYPAENWQEIIQDFRQKQPDLPVVVIQGPDDEQFVRSLRDYSLDIKVTSPDNVGKLTAMIAGANLMLTTDSAPLHLSVAVQTYTIALFGSTDPVKLLPNSDKLLGIKSSTGRVADILPKAVLEKVWGGLEHHHHHH | failed
16 | MKIIRTRQRPFMVIVDVVLTVLAWVGLLYLLVRGLIPLLDSHEGPRIEAGMLDALTTLQFYAWVAVLNAVLLISWARYRQRRNKSYPPRLPAPVVDDKRLSETFKLNDATFAQMRQPGTMIVHNDEEGGISHVTTQFYRILPEDQQHPPLRVEPPPRVIHLRSEGDEGKKTGED | failed
17 | MSTPDGDEKEQCFHRAIAKTSIYLDREPGNPELTVWLAINKASLAGAQGGFGALSLAKEAKSLLEGVIATSPQTLDGSAYTSLGSLYYKVPGWPIGFGDDDKAEEMLKKALEINPKGIDPNYFYGDFLAEEGRDKEAKVYLTRAMQASPRPLEHHHHHH | failed
18 | GSSGSSGNWIDVRYDLEKIESLIQSIHIDTTLYTDSDFHPSCKVTAMNCFLLELQVILHEYSNMTLNETVRNVLYLANSTLSSNKNVAESGCKECEELEEKTFTEFLQSFIRIVQMFINTS | not failed
19 | MYMKHIENGTRIEGEYIKNKVIQYNMSILTDEVKQPMEEVSLVVKNEEGKIFGGVTGTMYFYHLHIDFLWVDESVRHDGYGSQLLHEIEGIAKEKGCRLILLDSFSFQAPEFYKKHGYREYGVVEDHPKGHSQHFFEKRL | not failed
20 | MDSLVASYASSDEEEDLQPRREAFTVKSSEPSASSLFSAIPQPKELKSSEDGDLGSSSSRGKSSSFLSSLPPPKSSISRKKNPNPSSIPKRVVQIRLPVNPRPSNLDDEDDEEEEKARKKRKQMESASASHDSSVRSFLSAMPAPKSSQTLGALPSLGSGSGRRSNLETETPSIAFPQTDSGISDQQNQSYESFSHSNSETEQIVGVDNYYATGYDGGYETIPSGSSVGYDGSSYGGNTWNGGGFEAMTGLPEAVVAMDSGARRGRRGRNQMPEIVEVKQDELMKNRPRVDQVKSTGIAFGPAYQPVTSSSKGKVSKLHKRKHQITALFMDMKHKESELTERRSRGLLTKAETQAKYGW | failed
21 | MSHGGGGHAAELYPEEQIFAVGIALSLVGCYLANFLSPYGLGMLIGGLLASAACVAGANTVRKVAAYGLGTGVPSIGMVSLGMGTLAAVAGVLIPDYFNLPYLVAPIITLIVSAVIGYIVGRLTVNPVGMKIPIMVRSMTFLSIAGAMALLGFTVAYVGSLEPQKYIDYALNNGMMALAFIAAGMAILHPFNACLGPNESHKRTLTLAVACGFITWFVFSVVKLDIVSIIVSIILWAIVYVKFVKMSFKDACAVLHVPEIPKKEE | failed
22 | MSLSVEFNKQQVRPRSEISPQDCWDITPLYLNRKAWKADLDSFGLKTDGSPTWPALQATQYQLDNSESLLSLLTTLFSIERKLNKLYVYAHLTHDQDITNQEGIADLKSITHLHTLFAEETSWVQPALTSLSESLIAQHLSAPCLAPYRFYLEKIFRLSIHTGTPGEEKILASAFTPLEVASKAFSSLSDSEIPFGQATDSEGNSHPLSHALASLYMQSTDRELRKTSYLAQCERYHSYRHTFANLLNGKIQAHVFYAKNKRYNSCLQAALYHNNIPTTVYTNLIDIVKKNSSLITKYFSIKQRCLNLKDFHFYDVYAPLSQSKEKKYTFQEAVDLIYTSLSPLGTEYIDTLKQGLTTQGWVDKYENLNKRSGAYSSGCYDSHPYVLLNYTGTLYDVSVIAHEGGHSMHSYFSRKHQPFHDAQYPIFLAEIASTLNEMLLMDSMLKESDSKEEKITILTRCLDTIFSTLFRQVLFASFEYDIHHAAEHGVPLTEEYLSSTYKNLQNEFYGEIITFDVLSNIEWARIPHFYYNFYVYQYATGIIAALCFLEKILNNEDNALNSYLNFLKSGGSDFPLEILKKSGLDMGTVEPIQKAFCFIEKKIQELSSLIEGHHHHHH | not failed
23 | MNFDTIIIGGGMAGLSCALRCLEAGLKTAVIASGQSALHFSSGSIDVLAKTPSGKHVINPMDSLETFSKEYPSHPYAALGKETVERAINWYKTTLSAIGVPLTSQKDGLNHYRLTPLGTMKSTWLSQPFVHQFPMDLEKNKTQKMVLITIDGFRDFQPKLAQDNLKQITQLSDLEIATASISLSAFNDIQRNHCELRSIDISRLLSKRANRQELAYALQQHANPGDLVVLPSIFGNGTGLSYLREIEQLTKLTLCEVPTMPPSLLGIRLEESMKHAFIELGGTMLNGDHVVQGEFSYVDKSDPEHSHYRLNRLFTKNHGDFPLQAKQFVLATGSFFSQGLKANVDSMIEPIFGLDIAQSDKRTDWYSHDFFSTQSHPFLSMGIKTTANFQAIKSGHVIDNLYCAGAILSGYNPILEGSGSGVAISSGFHAAESIIEQLQCSDSLQNNNTKAEVAL | failed
24 | MPSLSVRGSLLLVCALAVTGCASLQSQDQINYAHCRMVGQASKAEKFDVVLQEADLCLEKNQLSQPMQSLVYWLKSDAYASFKRYPEAIAAKEKSIELGPKPDARAVLDLSRLYREAGNPQKALELVQSNLDNNLGEAGKGSGFNMPTYYHLGQTLYDLGRYREAAEAYSTGLLKQPDYAWAFYHRGLAYDKLGQTDDARADFAQFAKLVNQKYVEPQHQAKLAEYKIKLP | failed
25 | DGKVTKVFSSPLMARVQDLSSCAFPAPRISAEKTAAHEVDKDTITYTITVRNSGNLEATGTKFTDNLPGSYVPNSAKLNG | failed
26 | MLVAAACFTIMNVLIKEASAKFALGSGELVFWRMLFSTVALGAAAVLRRDTFRTPHWKNHLNRSMVGTGAMLLLFYAVTHLPLATGVTLSYTSSIFLAVFSFLILKERISVYTQAVLLLGFAGVVLLLNPSFRSGQETAALAGLAGGAMSGWAYLKVRELSLAGEPGWRVVFYLSVTGVAMSSVWATLTGWHTLSFPSAVYLSCIGVSALIAQLSMTRAYKVGDKFTVASLSYMTVVFSALSAAFFLGEELFWQEILGMCIIILSGILSSIRPTAFKQRLQSLFRQR | failed
